One series addresses HIF1α-HIF1β heterodimer (UniProt Q61221+P53762). In words: MST. Particulars: 5mC at CpG of RCGTG; 20 mM phosphate, 75 mM NaCl, 5 mM DTT, 0.05% Tween-20, pH 7.4, 25 C; scale: fold lower affinity.
The next series has as its target HIF2α-HIF1β heterodimer (UniProt P97481+P53762). Description: MST. Particulars: 5mC at CpG of RCGTG; 20 mM phosphate, 75 mM NaCl, 5 mM DTT, 0.05% Tween-20, pH 7.4, 25 C; scale: fold lower affinity.
Series [1] deals with HIF1β (ARNT), endogenous (Mus musculus) (UniProt P53762). Particulars: 5mC at CpG (M.SssI); ChIP-qPCR in isogenic mouse ES cells. A general note: In qPCR the cycle at which signal appears reflects the starting amount.

The results in this text go back to patent US20220090209.

Regarding methylated RCGTG ds oligonucleotide, the binding signal with HIF1α-HIF1β heterodimer and in the series with HIF2α-HIF1β heterodimer was 15 in each case.

“in vitro methylated human HIF binding region chr16:30,065,212-30,065,711” came in with a binding signal (fold reduction vs unmethylated) in series [1] of 12.4.
